Key:
[1] = target: RBD polypeptide (RBD portion of the SARS-CoV-2 S1 spike protein) (SARS-CoV-2) (UniProt P0DTC2); experiment: BLI, biotinylated antibody on streptavidin tip, RBD polypeptide in PBS; row for 10 nM RBD
[2] = target: RBD polypeptide (RBD portion of the SARS-CoV-2 S1 spike protein) (SARS-CoV-2) (UniProt P0DTC2); experiment: BLI, biotinylated antibody on streptavidin tip, RBD polypeptide in PBS; row for 100 nM RBD

Kd [1]: 9.93 nM
koff [1]: 0.00101 s⁻¹
kon [1]: 102000 M⁻¹ s⁻¹
Kd [2]: 9.93 nM
koff [2]: 0.00101 s⁻¹
kon [2]: 102000 M⁻¹ s⁻¹
Substance: Ty1-Biotin (VHH)

— patent US20230305005A1
